Assay results taken from PMC13397619.

B1: NLV3 TCR beta chain (CDR3β only) (parent)
chain: ASSPTGGSPSPLH
B2: NLV3 TCR beta chain (CDR3β only) (parent)
chain: ASSPTGGSPSPLH
partner: NLCPMVATV

Variants of: B1
Assay: T-Switch: Jurkat TCRβ−/− cells expressing a CDR3 saturation-mutagenesis library, stained with two peptide-HLA-A*02:01 tetramers (original and novel peptide) plus anti-CD3, FACS-sorted into four gates, gDNA sequenced
Conditions: with both tetramers (double-negative gate, binds neither): HLA-A*02:01 with … and with …, tetramers 1 µg/mL, 30 min on ice, SP, DP and SW gates expanded about 10 days between rounds ('two to three rounds of selection' in the Methods), gate DN: OPPOSITE: higher = more of the variant in the gate that binds neither peptide = LESS binding (or no expression; inferred). Fold enrichment of the CDR3 variant in one FACS gate of a two-tetram, unresolved parent, parent is a CDR3 fragment, scale: fold enrichment, numbering: sequential-on-construct, sequence starts at 1
Work on […] (CDR3 as printed); T5S derived by comparing it with the table's wild-type CDR3 ASSPTGGSPSPLH yielded an enrichment of 0.633.
[…] (CDR3 as printed); T5Y derived by comparing it with the table's wild-type CDR3 ASSPTGGSPSPLH showed an enrichment of 0.587.
With […] (CDR3 as printed); T5R derived by comparing it with the table's wild-type CDR3 ASSPTGGSPSPLH the enrichment was 1.07.
Variant […] (CDR3 as printed); T5W derived by comparing it with the table's wild-type CDR3 ASSPTGGSPSPLH has an enrichment of 0.
For […] (CDR3 as printed); T5Q derived by comparing it with the table's wild-type CDR3 ASSPTGGSPSPLH, the enrichment was 1.16.
[…] (CDR3 as printed); T5P derived by comparing it with the table's wild-type CDR3 ASSPTGGSPSPLH gave an enrichment of 1.04.

Same assay, conditions: with both tetramers (double-positive gate): HLA-A*02:01 with … and with …, tetramers 1 µg/mL, 30 min on ice, SP, DP and SW gates expanded about 10 days between rounds ('two to three rounds of selection' in the Methods), gate DP: higher = more of the variant in the gate that binds both peptides. Fold enrichment of the CDR3 variant in one FACS gate of a two-tetramer stain. SP/DP/SW gates were expanded and re-sorted bef, unresolved parent, parent is a CDR3 fragment, scale: fold enrichment, numbering: sequential-on-construct, sequence starts at 1
With […] (CDR3 as printed); T5S derived by comparing it with the table's wild-type CDR3 ASSPTGGSPSPLH the enrichment was 0.
Work on […] (CDR3 as printed); T5Y derived by comparing it with the table's wild-type CDR3 ASSPTGGSPSPLH yielded an enrichment of 0.
With […] (CDR3 as printed); T5R derived by comparing it with the table's wild-type CDR3 ASSPTGGSPSPLH the enrichment was 0.
For […] (CDR3 as printed); T5W derived by comparing it with the table's wild-type CDR3 ASSPTGGSPSPLH, the enrichment was 0.
Variant […] (CDR3 as printed); T5Q derived by comparing it with the table's wild-type CDR3 ASSPTGGSPSPLH has an enrichment of 0.
Work on […] (CDR3 as printed); T5P derived by comparing it with the table's wild-type CDR3 ASSPTGGSPSPLH yielded an enrichment of 0.

Same assay, conditions: with both tetramers (double-negative gate, binds neither): HLA-A*02:01 with … and with …, tetramers 1 µg/mL, 30 min on ice, SP, DP and SW gates expanded about 10 days between rounds ('two to three rounds of selection' in the Methods), gate DN: OPPOSITE: higher = more of the variant in the gate that binds neither peptide = LESS binding (or no expression; inferred). Fold enrichment of the CDR3 variant in one FACS gate of a two-tetram, unresolved parent, parent is a CDR3 fragment, zero in all gates, scale: fold enrichment, numbering: sequential-on-construct, …
In the case of […] (CDR3 as printed); G7P derived by comparing it with the table's wild-type CDR3 ASSPTGGSPSPLH, the enrichment is reported as 0.

Same assay, conditions: with both tetramers (double-positive gate): HLA-A*02:01 with … and with …, tetramers 1 µg/mL, 30 min on ice, SP, DP and SW gates expanded about 10 days between rounds ('two to three rounds of selection' in the Methods), gate DP: higher = more of the variant in the gate that binds both peptides. Fold enrichment of the CDR3 variant in one FACS gate of a two-tetramer stain. SP/DP/SW gates were expanded and re-sorted bef, unresolved parent, parent is a CDR3 fragment, zero in all gates, scale: fold enrichment, numbering: sequential-on-construct, sequence starts at 1
[…] (CDR3 as printed); G7P derived by comparing it with the table's wild-type CDR3 ASSPTGGSPSPLH was tested, and the enrichment was 0.

Variants of: B2
Assay: as above
Conditions: with HLA-A*02:01 with peptide … (NLV 2-1, the novel peptide), tetramers 1 µg/mL, 30 min on ice, SP, DP and SW gates expanded about 10 days between rounds ('two to three rounds of selection' in the Methods), gate SW: higher = more of the variant in the gate that binds the novel peptide and not the original one = switched binding. Fold enrichment of the CDR3 variant in one FACS gate of a two-tetramer stain, unresolved parent, parent is a CDR3 fragment, scale: fold enrichment, numbering: sequential-on-construct, sequence starts at 1
With […] (CDR3 as printed); H13D derived by comparing it with the table's wild-type CDR3 ASSPTGGSPSPLH the enrichment was 0.
With […] (CDR3 as printed); P4C derived by comparing it with the table's wild-type CDR3 ASSPTGGSPSPLH the enrichment was 0.
[…] (CDR3 as printed); A1F derived by comparing it with the table's wild-type CDR3 ASSPTGGSPSPLH was tested, and the enrichment was 0.
For […] (CDR3 as printed); P9C derived by comparing it with the table's wild-type CDR3 ASSPTGGSPSPLH, the enrichment was 0.
For […] (CDR3 as printed); S2A derived by comparing it with the table's wild-type CDR3 ASSPTGGSPSPLH, the enrichment was 0.
[…] (CDR3 as printed); P9S derived by comparing it with the table's wild-type CDR3 ASSPTGGSPSPLH was tested, and the enrichment was 0.
For […] (CDR3 as printed); T5D derived by comparing it with the table's wild-type CDR3 ASSPTGGSPSPLH, the enrichment was 0.
With […] (CDR3 as printed); S2N derived by comparing it with the table's wild-type CDR3 ASSPTGGSPSPLH the enrichment was 0.
Work on […] (CDR3 as printed); A1D derived by comparing it with the table's wild-type CDR3 ASSPTGGSPSPLH yielded an enrichment of 0.
[…] (CDR3 as printed); P4W derived by comparing it with the table's wild-type CDR3 ASSPTGGSPSPLH was tested, and the enrichment was 0.
[…] (CDR3 as printed); S8E derived by comparing it with the table's wild-type CDR3 ASSPTGGSPSPLH gave an enrichment of 0.
Work on […] (CDR3 as printed); H13F derived by comparing it with the table's wild-type CDR3 ASSPTGGSPSPLH yielded an enrichment of 0.
[…] (CDR3 as printed); S2F derived by comparing it with the table's wild-type CDR3 ASSPTGGSPSPLH gave an enrichment of 0.
In the case of […] (CDR3 as printed); T5H derived by comparing it with the table's wild-type CDR3 ASSPTGGSPSPLH, the enrichment is reported as 0.
With […] (CDR3 as printed); P4Q derived by comparing it with the table's wild-type CDR3 ASSPTGGSPSPLH the enrichment was 0.
Work on […] (CDR3 as printed); S10A derived by comparing it with the table's wild-type CDR3 ASSPTGGSPSPLH yielded an enrichment of 0.
[…] (CDR3 as printed); G7Q derived by comparing it with the table's wild-type CDR3 ASSPTGGSPSPLH was tested, and the enrichment was 0.
[…] (CDR3 as printed); S10G derived by comparing it with the table's wild-type CDR3 ASSPTGGSPSPLH showed an enrichment of 0.
[…] (CDR3 as printed); S10E derived by comparing it with the table's wild-type CDR3 ASSPTGGSPSPLH gave an enrichment of 0.
[…] (CDR3 as printed); L12F derived by comparing it with the table's wild-type CDR3 ASSPTGGSPSPLH showed an enrichment of 0.
For […] (CDR3 as printed); S10K derived by comparing it with the table's wild-type CDR3 ASSPTGGSPSPLH, the enrichment was 0.
[…] (CDR3 as printed); G6V derived by comparing it with the table's wild-type CDR3 ASSPTGGSPSPLH gave an enrichment of 0.
[…] (CDR3 as printed); A1P derived by comparing it with the table's wild-type CDR3 ASSPTGGSPSPLH showed an enrichment of 0.
For […] (CDR3 as printed); P11E derived by comparing it with the table's wild-type CDR3 ASSPTGGSPSPLH, the enrichment was 0.
In the case of […] (CDR3 as printed); L12P derived by comparing it with the table's wild-type CDR3 ASSPTGGSPSPLH, the enrichment is reported as 0.
For […] (CDR3 as printed); H13W derived by comparing it with the table's wild-type CDR3 ASSPTGGSPSPLH, the enrichment was 0.
In the case of […] (CDR3 as printed); L12Y derived by comparing it with the table's wild-type CDR3 ASSPTGGSPSPLH, the enrichment is reported as 0.

Same assay, conditions: with HLA-A*02:01 with peptide … (NLV 2-1, the novel peptide), tetramers 1 µg/mL, 30 min on ice, SP, DP and SW gates expanded about 10 days between rounds ('two to three rounds of selection' in the Methods), gate SW: higher = more of the variant in the gate that binds the novel peptide and not the original one = switched binding. Fold enrichment of the CDR3 variant in one FACS gate of a two-tetramer stain, unresolved parent, parent is a CDR3 fragment, zero in all gates, scale: fold enrichment, numbering: sequential-on-construct, …
[…] (CDR3 as printed); S2L derived by comparing it with the table's wild-type CDR3 ASSPTGGSPSPLH was tested, and the enrichment was 0.
